T1: chimeric G-CSF receptor (human G-CSF receptor extracellular domain / mouse G-CSF receptor) in Ba/F3 cell line GFG (UniProt P40223+Q99062)
T1 construct: the extracellular domain (from the −23rd to the 604th amino acid residues); expressed in transfected cells; host or cells: mouse Ba/F3 cells, clone GFG#342 = GFG
T1 sequence (Q99062+P40223 with tags, fused parts or gaps): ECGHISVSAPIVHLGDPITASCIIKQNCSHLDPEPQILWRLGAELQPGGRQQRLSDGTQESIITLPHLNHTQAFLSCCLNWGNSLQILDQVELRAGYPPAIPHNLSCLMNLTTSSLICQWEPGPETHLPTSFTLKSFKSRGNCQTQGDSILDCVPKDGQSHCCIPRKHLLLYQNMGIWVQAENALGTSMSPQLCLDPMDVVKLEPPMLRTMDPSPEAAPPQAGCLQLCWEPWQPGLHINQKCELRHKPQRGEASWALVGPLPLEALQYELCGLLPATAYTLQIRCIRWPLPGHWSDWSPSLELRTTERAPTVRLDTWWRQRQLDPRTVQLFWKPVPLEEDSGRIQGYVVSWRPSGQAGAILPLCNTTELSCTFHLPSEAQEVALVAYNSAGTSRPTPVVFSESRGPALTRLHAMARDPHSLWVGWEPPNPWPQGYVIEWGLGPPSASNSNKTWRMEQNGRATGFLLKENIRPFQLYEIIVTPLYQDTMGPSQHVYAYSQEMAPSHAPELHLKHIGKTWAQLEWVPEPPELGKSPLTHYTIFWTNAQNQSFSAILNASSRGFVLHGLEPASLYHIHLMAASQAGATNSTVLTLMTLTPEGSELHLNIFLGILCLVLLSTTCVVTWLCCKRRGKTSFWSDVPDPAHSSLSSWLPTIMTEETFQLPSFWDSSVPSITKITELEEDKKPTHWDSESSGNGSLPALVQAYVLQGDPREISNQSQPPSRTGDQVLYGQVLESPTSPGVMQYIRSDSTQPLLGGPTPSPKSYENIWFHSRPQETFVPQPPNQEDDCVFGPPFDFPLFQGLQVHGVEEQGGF


Legend:
[1] = Titer of human EPO and G-CSF prepared from recombinant CHO cells
[2] = tested on: mixed culture of cell lines GFG, EPG, TPG and parental Ba/F3; test: Cytokine responses in mixed and individual cell cultures (Example 2); format: cell-based, mouse; conditions: mixed culture of four cell lines (each 4×10^3 cells/well), similar in individual cultures, 72 hours, WST-8; listed as hG-CSF
Procedure: Mixed culture of the cell lines GFG, EPG, and TPG, which express human G-CSF, EPO, and TPO chimeric receptors, respectively, and their parental cell line Ba/F3 was conducted and their response to various cytokines was examined.
The cells were washed twice with RPMI1640 media containing 2% fetal bovine serum, and then were suspended in RPMI1640 containing 10% fetal bovine serum. The four cell lines were mixed by adjusting each of the cell lines to 4×10^4 cells/mL (16×10^4 cells/mL in total) for the mixed culture, and, for individual cultures, cells were prepared at 4×10^4 cells/mL. 100 μL each of the cells were independently seeded on a 96-well microtiter plate (flat bottom, Falcon). After adding 100 μL/well each of appropriately diluted cytokines, the cultures were cultured for 72 hours in a CO2 incubator (5% CO2 concentration). After the culture, 10 μL/well WST-8 reagent (Cell Count Reagent SF; Nacalai Tesque) was added, and pre-reaction absorbance at a measurement wavelength of 450 nm and a control wavelength of 655 nm was measured using a microplate reader (Model 3550, Bio Rad). The plate was incubated for two hours in a CO2 incubator (CO2 concentration, 5%), and post-reaction absorbance was measured as above. Data were graphed out taking the cytokine concentrations on the horizontal axis and the amount of changes in absorbance after 2-hour incubation on the vertical axis (FIGS. 18, 19, and 20).

[3] = biological target: T1, chimeric G-CSF receptor (human G-CSF receptor extracellular domain / mouse G-CSF receptor) in Ba/F3 cell line GFG; test: Growth response of chimeric G-CSF receptor-expressing Ba/F3 cell line GFG (WST-8); format: cell-based; conditions: 70 hours culture, WST-8 absorbance
Text: A chimeric receptor cDNA was constructed by linking cDNA fragments encoding the extracellular domain (from the −23rd to the 604th amino acid residues; Fukunaga, R. et al. (1990) Proc. Natl. Acad. Sci. USA 87, 8702-8706) of human G-CSF receptor, and the transmembrane and intracellular domains (from the 602nd to the 813th amino acid residues; Fukunaga, R. et al. (1990) Cell 61, 341-350) of mouse G-CSF receptor. The cDNA was inserted downstream of the HEF1α promoter of the mammalian expression vector pCOS-G to construct chimeric receptor-expression vector GG/pCOS-G. GG/pCOS-G was linearized with Pvu I (Takara Shuzo), extracted with phenol and chloroform, and purified by ethanol precipitation.
(§1) The linearized expression gene vector was introduced into mouse Ba/F3 cells using an electroporation apparatus (Gene Pulser: Bio Rad). […]
(§2) The cells were washed twice with Media A, and were suspended in Media A to give a cell density of 5×10^4 cells/mL. […] After the culture, 10 μl/well WST-8 reagent (Cell Count Reagent SF; Nacalai Tesque) was added, and pre-reaction absorbance at a measurement wavelength of 450 nm and a control wavelength of 655 nm was measured using microplate reader (Model 3550, Bio Rad). The plate was incubated for two hours in a CO2 incubator (CO2 concentration, 5%), and post-reaction absorbance was measured as above.

[4] = biological target: T2, chimeric Flt-3 receptor (human Flt-3 extracellular domain / mouse G-CSF receptor) in Ba/F3 cell line FLG (Homo sapiens, UniProt P36888); test: Growth response of chimeric Flt-3 receptor-expressing Ba/F3 cell line FLG (WST-8); format: cell-based; conditions: 74 hours culture, WST-8 absorbance
T2 construct: from the 1st to the 541st amino acid residues; expressed in transfected cells; host or cells: mouse Ba/F3 cells, clone FLG#102 = FLG
Text: A chimeric receptor cDNA was constructed by linking cDNA fragments encoding the extracellular domain (from the 1st to the 541st amino acid residues; Small, D. et al. (1994) Proc. Natl. Acad. Sci. USA. 91, 459-463) of human Flt-3, and the transmembrane and intracellular domains (from the 602nd to the 813th amino acid residues; Fukunaga, R. et al. (1990) Cell 61, 341-350) of mouse G-CSF receptor. The cDNA was inserted downstream of the EF1α promoter of the mammalian expression vector pCOS2 to construct chimeric receptor-expression vector FLG/pCOS2. The FLG/pCOS2 was linearized with Hpa I (Takara Shuzo), extracted with phenol and chloroform, and purified by ethanol precipitation.
as §1
as §2, with “5%; humidity, 99.9%),” for “5%),”

Row | concentration at which an evident growth reaction was observed [3] | concentration at which an evident growth reaction was observed [4] | Molecule | titer [1] | concentration where the response was observed to start [2]
1 | ≥ 10 pg/mL |  | granulocyte-colony stimulating factor (protein, UniProt P09919 31-207, looked up, human G-CSF prepared from recombinant CHO cells) Granulocyte …: TPLGPASSLPQSFLLKCLEQVRKIQGDGAALQEKLVSECATYKLCHPEELVLLGHSLGIPWAPLSSCPSQALQLAGCLSQLHSGLFLYQGLLQALEGISPELGPTLDTLQLDVADFATTIWQQMEELGMAPALQPTQGAMPAFASAFQRRAGGVLVASHLQSFLEVSYRVLRHLAQP | 1.2×10^8 IU/mg | 2 pg/mL
2 |  | ≥ 300 pg/mL | human Flt-3 ligand: human Flt-3 ligand (Genzyme) (protein, UniProt P49771 27-235, looked up) Fms-related tyrosine kinase 3 …: TQDCSFQHSPISSDFAVKIRELSDYLLQDYPVTVASNLQDEELCGGLWRLVLAQRWMERLKTVAGSKMQGLLERVNTEIHFVTKCAFQPPPSCLRFVQTNISRLLQETSEQLVALKPWITRQNFSRCLELQCQPDSSTLPPPWSPRPLEATAPTAPQPPLLLLLLLPVGLLLLAAAWCLHWQRTRRRTPRPGEQVPPVPSPQDLLLVEH |  | 

From patent US7732133B2, “Screening methods for biologically active ligands” (Chugai Seiyaku Kabushiki Kaisha, priority 2000, dated 2010)
